# Patent publication US20150299314A1 (TORAY INDUSTRIES, published 2015)
# T1: CAPRIN-1 protein expressed on the cell surface of human cancer cells (human, UniProt Q14444 2-709)
# T1 construct: whole, on cells; Target of all flow cytometry and ADCC assays; the cell line is named under assay; also called human CAPRIN-1; cytoplasmic- and proliferation-associated protein 1
# T1 sequence (looked up): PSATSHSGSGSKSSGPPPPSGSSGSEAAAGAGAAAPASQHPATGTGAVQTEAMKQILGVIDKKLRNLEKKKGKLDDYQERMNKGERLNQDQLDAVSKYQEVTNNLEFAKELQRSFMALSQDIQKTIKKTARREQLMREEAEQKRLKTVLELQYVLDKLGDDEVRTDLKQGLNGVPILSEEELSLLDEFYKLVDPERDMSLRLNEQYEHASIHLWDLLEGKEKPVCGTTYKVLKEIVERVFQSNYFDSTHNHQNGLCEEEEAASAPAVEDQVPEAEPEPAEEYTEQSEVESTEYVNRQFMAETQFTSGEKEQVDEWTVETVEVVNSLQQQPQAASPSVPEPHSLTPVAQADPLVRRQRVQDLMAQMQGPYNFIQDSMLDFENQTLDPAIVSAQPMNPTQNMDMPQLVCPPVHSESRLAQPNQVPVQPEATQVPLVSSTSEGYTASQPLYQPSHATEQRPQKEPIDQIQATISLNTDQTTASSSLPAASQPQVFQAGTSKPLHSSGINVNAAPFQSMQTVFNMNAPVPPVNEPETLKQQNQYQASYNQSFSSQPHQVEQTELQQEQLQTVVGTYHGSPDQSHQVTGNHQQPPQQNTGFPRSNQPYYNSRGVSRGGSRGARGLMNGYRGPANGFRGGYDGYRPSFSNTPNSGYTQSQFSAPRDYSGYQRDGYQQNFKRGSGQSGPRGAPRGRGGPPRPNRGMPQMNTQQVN
# Target: T1, CAPRIN-1 protein expressed on the cell …
# Test: flow cytometry, TGBC14TKB cells, culture supernatant, isotype control antibody as control
# Description: Subsequently, a gallbladder cell line TGBC14TKB, which was confirmed to express a CAPRIN-1 gene, was investigated for whether or not a CAPRIN-1 protein is expressed on the surfaces of these cells. 1×10⁶ cells of TGBC14TKB were centrifuged with a 1.5-mL micro centrifugation tube. To the cells was added the culture supernatant (100 μL) containing any of anti-CAPRIN-1 mouse monoclonal antibodies #1 to #22 reacting to cancer cell surface produced in Example 4 and anti-CAPRIN-1 mouse-chicken chimeric antibodies #1 to #3 produced in the above (2), followed by being left to stand on ice for 1 hour. After washing with PBS, the cells were suspended in a FITC-labeled goat anti-mouse IgG antibody (manufactured by life technologies) diluted by 500-fold with PBS containing 0.1% FBS, followed by being left to stand on ice for 1 hour. After washing with PBS, the fluorescence intensity was measured with FACS Calibur available from Becton, Dickinson and Company. Separately, as a control, the same procedure as in above was performed using an iso-type control antibody, instead of the culture supernatants containing the anti-CAPRIN-1 mouse monoclonal antibodies #1 to #22 and the mouse-chicken chimeric antibodies #1 to #3. As a result, the fluorescence intensity in the cells to which any of the monoclonal antibodies #1 to #22 and the mouse-chicken chimeric antibodies #1 to #3 was added was 20% or more higher than that in the control in every case. Specifically, in the case of using mouse-chicken chimeric antibody #1, the fluorescence intensity was enhanced by 200% or more. […] The rate of increase in the fluorescence intensity is represented by the rate of increase in the mean fluorescence intensity (MFI value) in each cell and is calculated by the following calculation formula: […]
row,Binder,rate of increase in mean fluorescence intensity over control [%]
1,"mouse-chicken chimeric antibody #3 (antibody, mouse IgG1, V domains shown, also called anti-CAPRIN-1 mouse-chicken chimeric antibody #3) VH: AVTLDESGGGLQTPGGALSLVCKASGFTFSGYDMLWVRQAPGKGLEWVAGIGSTGGGTDYGAAVKGRATISRDNGQSTVRLQLNNLRAEDTATYYCAKVAGGCNSGYCRDSPGSIDAWGHGTEVIVS VL: AVTQQPASVSANPGETVKITCSGGGSRNYYGWYQQKSPGSVPVTVIYYDDQRPSNIPSRFSGALSGSTSTLTITGVQADDEAVYFCGSADSNTYEGSFGAGTTLTVL",≥ 20
2,"mouse monoclonal antibody #12 (antibody, V domains shown, mouse hybridoma antibody; also called anti-CAPRIN-1 mouse monoclonal antibody #12; anti-CAPRIN-1 monoclonal antibody #12) VH: EVQLHQFGAELVKPGASVKISCKASGYTFTDYNMDWVKQSHGKSLEWIGDINPNYDSTSYNQKFKGKATLTVDKSSSTAYMELRSLTSEDTAVYYCARSRSYDYEGFAYWGQGTLVTVSA VL: DIQMTQSPASLSASVGETVTITCRASGNIHNYLAWYQQKQGKSPQLLVYNAKTLADGVPSRFSGSGSGTQYSLKINSLQPEDFGSYYCQHFWSTLTFGAGTKLELKR",≥ 20
3,"mouse-chicken chimeric antibody #2 (antibody, mouse IgG1, V domains shown, also called anti-CAPRIN-1 mouse-chicken chimeric antibody #2) VH: AVTLDESGGGLQTPGGGLSLVCKASGFTFSSFDMGWVRQAPGKGLEFVAQINDAGSRTWYATAVKGRATISRDNGQTTVRLQLNNLRAEDTGTYYCTRGSGYVGAGAIDAWGHGTEVIVS VL: AALTQPSSVSANPGETVKITCSGGSGYYGWYQQQKSPGSAPVTVIYQNDKRPSDIPSRFSGSGSGSTNTLTITGVQAEDEAVYFCGRYDSTDSGIFGAGTTLTVL",≥ 20
4,"mouse monoclonal antibody #8 (antibody, V domains shown, mouse hybridoma antibody; also called anti-CAPRIN-1 mouse monoclonal antibody #8; anti-CAPRIN-1 monoclonal antibody #8) VH: GGGLVKPGGSLKLSCAASGFAFSSYDMSWIRQTPEKRLEWVAYISSGAGSTYYPDTVKGRFTVSRDNAKNTLYLQMSSLKSEDTAMYYCARHFYRFDYWGQGTTVTVSS VL: SIVMTQTPKFLLVSAGDRITITCKASQSVSNDVAWYQQKPGQSPKLLIYYASNRYTGVPDRFTGSGYGTDFTFTISTVQAEDLAVYFCQQDDRFPLTFGAGPS",≥ 20

# Target: T1, CAPRIN-1 protein expressed on the cell …
# Test: cell-based or functional assay
Binder,"ADCC activity on TGBC14TKB, method as in Example 12 [%]","ADCC activity (cytotoxicity, 51Cr release) on TGBC14TKB, antibody 5 ug/mL, human NK cells [%]","cytotoxicity (ADCC, 51Cr release) on TGBC14TKB, human NK cells [%]"
"human-mouse chimeric anti-CAPRIN-1 antibody #29 (antibody, human IgG1, kappa) heavy: not shown light: GTCGDIVMSQSPSSLAVSAGEKVTMSCKSSQSLLNSRTRKNYLAWVQHKPGQSPRLLIYWASTRESGVPDRFTGSGSGTDFTLTISSVQAEDLAVYYCRQSYNLVTFGAGPSTVAAPSVFIFPPSDEQLKSGTASVVCLLNNFYPREAKVQWKVDNALQSGNSQESVTEQDSKDSTYSLSSTLTLSKADYEKHKVYACEVTHQGLSSPVTKSFNRGEC",≥ 20,,
"human-mouse chimeric anti-CAPRIN-1 antibody #36 (antibody, human IgG1, kappa) heavy: not shown light: QDELSNPVTSGESVSISCRSSKSLLYKDGKTYLNWFLQRPGQSPQLLIYLMSTRASGVSDRFSGSGSGTDFTLEISRVKAEDVGVYYCQQLVEDPLTFGAGTKLELKRTVAAPSVFIFPPSDEQLKSGTASVVCLLNNFYPREAKVQWKVDNALQSGNSQESVTEQDSKDSTYSLSSTLTLSKADYEKHKVYACEVTHQGLSSPVTKSFNRGEC",,≥ 20,
"human-mouse chimeric anti-CAPRIN-1 antibody #23 (antibody, human IgG1, kappa, V domains shown) VH: GGGLVKPGGSLKLSCAASGFTFSSYGMSWVRQTPEKRLEWVATISSGGSYTYYPDSVKGRFTISRDNAKNTLYLQMSSLRSEDTAMYYCASLASYYFDYWGQGTTLTVSS VL: GARCDVQMIQSPSSLSASLGDIVTMTCQASQGTSINLNWFQQKPGKAPKLLIYGASSLEDGVPSRFSGSCFGTDFTLTISSLEDEDMATYFCLQHSYLPPLTFGAGTKLELKR",≥ 20,,
"human-mouse chimeric anti-CAPRIN-1 antibody #24 (antibody, human IgG1, kappa, V domains shown) VH: GGGLVKPGGSLKLSCAASGFTFSSYGMSWVRQTPEKRLEWVATISSGGSYTYYPDSVKGRFTISRDNAKNTLYLQMSSLRSEDTAMYYCASLASYYFDYWGQGTTLTVSS VL: not shown",≥ 20,,
human-mouse chimeric anti-CAPRIN-1 antibody #30 (antibody) heavy: not shown light: DVQITQSPSYLAASPGETITINCRASKSISKYLAWYQEKPGKTNKLLIYSGSTLQSGIPSRFSGSGSGTDFTLTISSLEPEDFAMYYCQQHNEYPYTFGGGTKLEIKRTVAAPSVFIFPPSDEQLKSGTASVVCLLNNFYPREAKVQWKVDNALQSGNSQESVTEQDSKDSTYSLSSTLTLSKADYEKHKVYACEVTHQGLSSPVTKSFNRGEC,,≥ 20,
"human-mouse chimeric anti-CAPRIN-1 antibody #31 (antibody, human IgG1, kappa) heavy: not shown light: DVQITQSPSYLAASPGETITINCRASKSISKYLAWYQEKPGKTNKLLIYSGSTLQSGIPSRFSGSGSGTDFTLTISSLEPEDFAMYYCQQHNEYPWTFGGGTKLEIKRTVAAPSVFIFPPSDEQLKSGTASVVCLLNNFYPREAKVQWKVDNALQSGNSQESVTEQDSKDSTYSLSSTLTLSKADYEKHKVYACEVTHQGLSSPVTKSFNRGEC",,≥ 20,
"human-mouse chimeric anti-CAPRIN-1 antibody #26 (antibody, human IgG1, kappa) heavy: not shown light: PASSSDVLMTQTPLSLPVRLGDQSSISCRSSQSIVHSNGNTYLEWYLQKPGQSPKLLIYKVSNRFSGVPDRFSGSGSGTDFTLKISRVEPEDLGVYYCFQGSHVPYTSEGDQAEIKLATVAAPSVFIFPPSDEQLKSGTASVVCLLNNFYPREAKVQWKVDNALQSGNSQESVTEQDSKDSTYSLSSTLTLSKADYEKHKVYACEVTHQGLSSPVTKSFNRGEC",≥ 20,,
"human-mouse chimeric anti-CAPRIN-1 antibody #25 (antibody, human IgG1, kappa, V domains shown) VH: GPGLVQPSQSLSITCTVSGFSLTTYDLHWVRQSPGKGLEWLGVIWSGGSTDYNAAFISRLSISKDNSKSQVFFKMNSLQANDTAIYYCARNYGYSAWFAYWGQGTLVTVSA VL: DVLMTQTPLSLPVSLGDQASISCRSSQSIVHSNGNTYLEWYLQKPGQSPKLLIYKVSNRFSGVPDRFSGSGSGTDFTLKISRVEAEDLGVYYCFQGSHVPLTFGAGTKLELKR",≥ 20,,
"human-mouse chimeric anti-CAPRIN-1 antibody #27 (antibody, human IgG1, kappa, V domains shown) VH: GGGLVQPGGSMRLSCVASGFTFSNSWFNWVRQSPEKGLEWVAEIRLTSDNYAIYYAESVKGRFTISRDDSKSSVYLQMNNLRAEDTGIYYCTRPETARATFAYWGQGTTVTVSS VL: DVLMTQTPLSLPVSLGDQASISCRSSQSIVHSNGNTYLEWYLQKPGQSPKVLIYKVFNRFSGVPDRFSGSGSGTDFTLKISRVEAEDLGVYYCFQGSHVPRTFGGGTKLNQTG",≥ 20,,
"mouse monoclonal antibody #12 (antibody, V domains shown, mouse hybridoma antibody; also called anti-CAPRIN-1 mouse monoclonal antibody #12; anti-CAPRIN-1 monoclonal antibody #12) VH: EVQLHQFGAELVKPGASVKISCKASGYTFTDYNMDWVKQSHGKSLEWIGDINPNYDSTSYNQKFKGKATLTVDKSSSTAYMELRSLTSEDTAVYYCARSRSYDYEGFAYWGQGTLVTVSA VL: DIQMTQSPASLSASVGETVTITCRASGNIHNYLAWYQQKQGKSPQLLVYNAKTLADGVPSRFSGSGSGTQYSLKINSLQPEDFGSYYCQHFWSTLTFGAGTKLELKR",,,≥ 15
"human-chicken chimeric antibody #2 (antibody, human IgG1, kappa, V domains shown) VH: AVTLDESGGGLQTPGGGLSLVCKASGFTFSSFDMGWVRQAPGKGLEFVAQINDAGSRTWYATAVKGRATISRDNGQTTVRLQLNNLRAEDTGTYYCTRGSGYVGAGAIDAWGHGTEVIVSA VL: AALTQPSSVSANPGETVKITCSGGSGYYGWYQQQKSPGSAPVTVIYQNDKRPSDIPSRFSGSGSGSTNTLTITGVQAEDEAVYFCGRYDSTDSGIFGAGTTLTVLT",,,≥ 15
"human-mouse chimeric anti-CAPRIN-1 antibody #28 (antibody, human IgG1, kappa, V domains shown) VH: GPDLVKPGASVKISCKASGYSFTAYYMHWVKQSHGKSLEWIGRVNPNNGGTTYNQKFKGKAILTVDKSSSTAYMELRSLTFEDSAVYYCARRIYYGYFDYWGQGTTVTVSS VL: AFFAVSLGQRATISCKASQSVDYDGDSYMNWYQQKPGQPPKLLIYVASNLESGVPARFSGSGSGTDFTLNIHPVEEEDAATYYCQQSNEDPYTFGGGTKLEIKQ",≥ 20,,
"human-mouse chimeric anti-CAPRIN-1 antibody #34 (antibody, human IgG1, kappa, V domains shown) VH: GAELVRPGTSVKVSCKASVYAFTNYLIEWVKQRPGQGLEWIGVINPKSGGTKYNEKFRGKATLTADKSSSTAYMQLSSLTSGDSAVYFCAITGTDYWGQGTTLTVSS VL: QGTRCDIQMTQTTSSLSASLGDRVTISCSASQGINNYLNWYQQKPDGTVKLLIYYTSSLRSGVPSRFSGSGSGTDYSLTISNLEPEDVATYYCQQYSKLPRTFGGGTKLEIKR",,≥ 20,
"mouse monoclonal antibody #8 (antibody, V domains shown, mouse hybridoma antibody; also called anti-CAPRIN-1 mouse monoclonal antibody #8; anti-CAPRIN-1 monoclonal antibody #8) VH: GGGLVKPGGSLKLSCAASGFAFSSYDMSWIRQTPEKRLEWVAYISSGAGSTYYPDTVKGRFTVSRDNAKNTLYLQMSSLKSEDTAMYYCARHFYRFDYWGQGTTVTVSS VL: SIVMTQTPKFLLVSAGDRITITCKASQSVSNDVAWYQQKPGQSPKLLIYYASNRYTGVPDRFTGSGYGTDFTFTISTVQAEDLAVYFCQQDDRFPLTFGAGPS",,,≥ 15
